In PMC4868323, “Interaction of Toll-Like Receptors with the Molecular Chaperone Gp96 Is Essential for Its Activation of Cytotoxic T Lymphocyte Response” (PLoS ONE, 2016):
No end group written: not given here.

Key:
Assay in all cases: ELISA; biotinylated HBc87-95 on 96-well streptavidin plates; serial dilutions of gp96 0.03–200 μg/mL in 20 mM HEPES pH 7.2, 20 mM NaCl, 2 mM MgCl2, 100 mM KCl, 1.5 h; detected with rat anti-grp94 antibody; 300 μM radicicol as inhibitor
Details in all cases: both partners purified
[1] = biological target: T1, recombinant wild-type gp96 (gp96-wt), His-tagged (human, UniProt P14625 22-803, FITC label on the portion used for flow cytometry (sites not given))
T1 construct: human gp96 (GRP94), mature protein; cDNA in pET28a(+) subcloned with its His tag into pFastBac1; the 3' primer ends at ...EKDEL stop; The tag's end is read from the printed sense primer (MGSSHH..., as in pET28a); Unlabelled in the co-IP and ELISA, FITC-labelled in flow cytometry; also called FITC-gp96-wt; glucose-regulated protein 94; source: baculovirus (Bac-to-Bac, pFastBac1), purified …

[2] = biological target: T2, native mouse gp96 (mgp96) (mouse, UniProt P08113 22-802)
T2 construct: gp96 (GRP94, endoplasmin) purified from mouse liver; also called native gp96; source: purified from healthy mouse livers

[3] = biological target: T3, gp96 with Ala substitutions at the conserved residues in the first half of the CBD (gp96-mut), His-tagged (human, UniProt P14625 22-803, GWSGNMER (653-660) to AASAAAAA, read from the printed gp96-mut primer, FITC label on the portion used for flow cytometry (sites not given))
T3 construct: human gp96 (GRP94), mature protein, with Ala substitutions in the GWXGNMER motif of the CBD; positions follow the legend's 653-660 for the same eight residues deleted in gp96-ΔCBD; also called mutated gp96; mutant gp96; source: baculovirus (Bac-to-Bac, pFastBac1), purified (Ni-sepharose, Hitrap Q HP, Superdex 200)

Measured: binding result

T2 sequence (P08113 22-802): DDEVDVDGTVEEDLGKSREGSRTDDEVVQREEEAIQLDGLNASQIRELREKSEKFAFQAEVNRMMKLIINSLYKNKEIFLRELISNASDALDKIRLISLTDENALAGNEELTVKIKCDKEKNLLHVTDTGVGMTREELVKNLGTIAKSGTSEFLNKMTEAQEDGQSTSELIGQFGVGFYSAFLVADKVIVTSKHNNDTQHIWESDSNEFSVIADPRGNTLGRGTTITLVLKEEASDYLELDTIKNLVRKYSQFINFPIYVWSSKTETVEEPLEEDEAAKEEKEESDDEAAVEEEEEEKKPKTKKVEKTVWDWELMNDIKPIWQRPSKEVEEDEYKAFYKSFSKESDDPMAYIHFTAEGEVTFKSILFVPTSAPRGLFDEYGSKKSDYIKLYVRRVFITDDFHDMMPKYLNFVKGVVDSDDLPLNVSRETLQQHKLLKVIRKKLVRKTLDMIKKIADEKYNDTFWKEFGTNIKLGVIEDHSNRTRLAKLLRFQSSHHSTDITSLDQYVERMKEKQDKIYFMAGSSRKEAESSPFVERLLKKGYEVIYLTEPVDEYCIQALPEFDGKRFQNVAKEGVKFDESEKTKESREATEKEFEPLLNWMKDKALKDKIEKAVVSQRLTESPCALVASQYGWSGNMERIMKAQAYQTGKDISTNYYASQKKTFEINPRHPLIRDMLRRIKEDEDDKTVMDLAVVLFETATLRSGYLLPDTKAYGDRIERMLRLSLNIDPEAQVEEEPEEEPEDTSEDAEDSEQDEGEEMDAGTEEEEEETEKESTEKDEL
T3 sequence (P14625 other isoform, or with tags, fused parts or gaps with the stated changes): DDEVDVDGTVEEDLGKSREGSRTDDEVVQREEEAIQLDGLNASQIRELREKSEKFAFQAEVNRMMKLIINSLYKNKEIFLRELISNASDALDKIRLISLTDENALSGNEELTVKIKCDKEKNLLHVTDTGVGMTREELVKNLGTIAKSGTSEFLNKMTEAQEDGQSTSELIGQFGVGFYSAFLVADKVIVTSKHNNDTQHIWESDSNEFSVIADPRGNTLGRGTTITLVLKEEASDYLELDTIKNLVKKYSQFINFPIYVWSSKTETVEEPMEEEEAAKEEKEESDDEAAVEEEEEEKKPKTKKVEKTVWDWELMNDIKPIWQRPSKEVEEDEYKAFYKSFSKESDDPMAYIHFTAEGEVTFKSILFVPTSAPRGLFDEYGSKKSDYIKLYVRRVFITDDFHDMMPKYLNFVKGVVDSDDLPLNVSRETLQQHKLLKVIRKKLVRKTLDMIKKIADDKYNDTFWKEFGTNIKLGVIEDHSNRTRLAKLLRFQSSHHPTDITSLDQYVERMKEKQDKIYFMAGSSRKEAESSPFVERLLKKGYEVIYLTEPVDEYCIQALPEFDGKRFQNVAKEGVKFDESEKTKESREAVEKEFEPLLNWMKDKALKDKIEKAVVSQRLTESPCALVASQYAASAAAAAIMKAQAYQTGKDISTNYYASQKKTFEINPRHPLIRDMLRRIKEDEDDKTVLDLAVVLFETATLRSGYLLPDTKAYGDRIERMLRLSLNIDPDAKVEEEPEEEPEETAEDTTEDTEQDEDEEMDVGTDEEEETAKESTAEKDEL
T1 sequence (P14625 22-803): as the sequence (P14625 other isoform, or with tags, fused parts or gaps with the stated changes) above, with A632G, A633W, A635G, A636N, A637M, A638E, A639R counted along it

B1: biotinylated peptide HBc87-95 (peptide)
peptide: SYVNTNMGL
modifications: also: biotinylated, position not given here
notes: also called HBcAg_(87–95); source: synthetic peptide (GL Biochem Ltd.)
binds: [1] | [2] | [3]
